Measurements as given in patent EP4628512A1 (Innovent Biologics (Suzhou) Co., Ltd., dated 2025).

T1: human Ang2 (Beijing Sino Biological) (human, UniProt O15123 19-496, limits assumed)
T1 construct: Antigen of the BLI and SPR experiments; also called angiopoietin 2; ANGPT2
T1 sequence (looked up): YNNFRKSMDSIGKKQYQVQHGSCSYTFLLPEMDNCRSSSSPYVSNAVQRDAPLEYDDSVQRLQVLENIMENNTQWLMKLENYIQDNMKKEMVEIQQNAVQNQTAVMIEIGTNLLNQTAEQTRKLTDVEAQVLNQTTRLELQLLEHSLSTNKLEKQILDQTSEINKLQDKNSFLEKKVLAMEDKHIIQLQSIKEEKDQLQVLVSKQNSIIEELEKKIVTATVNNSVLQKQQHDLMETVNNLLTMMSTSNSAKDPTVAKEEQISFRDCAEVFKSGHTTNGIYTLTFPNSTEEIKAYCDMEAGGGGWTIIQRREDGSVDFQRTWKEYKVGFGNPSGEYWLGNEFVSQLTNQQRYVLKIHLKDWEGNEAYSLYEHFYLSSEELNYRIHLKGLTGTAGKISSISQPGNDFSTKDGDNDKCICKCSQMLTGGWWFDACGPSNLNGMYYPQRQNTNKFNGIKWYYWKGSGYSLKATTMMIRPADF

T2: human VEGFC (R&D) (human, UniProt P49767 103-227)
T2 construct: also called hVEGFC; recombinant human VEGFC protein
T2 sequence (looked up): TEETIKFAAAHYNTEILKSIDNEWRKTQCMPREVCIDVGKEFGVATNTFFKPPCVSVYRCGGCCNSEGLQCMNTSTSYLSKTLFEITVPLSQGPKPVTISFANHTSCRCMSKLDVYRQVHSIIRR

B1: IAR044-030 (other)
chain: EVQLLESGGGLVQPGGSLRLSCAASGFALDYYAIGWFRQAPGKGLEGVSCISSGEGSTYYADSVKGRFTISRDNSKNTVYLQMNSLRAEDTAVYYCATDSRGDDVACEGLRRNEYDYWGQGTLVTVSSGGGGGGGGGGSDTGRPFVEMYSEIPEIIHMTEGRELVIPCRVTSPNITVTLKKFPLDTLIPDGKRIIWDSRKGFIISNATYKEIGLLTCEATVNGHLYKTNYLTHRQTNTIIDVVLSPSHGIELSVGEKLVLNCTARTELNVGIDFNWEYPSSKHQHKKLVNRDLKTQSGSEMKKFLSTLTIDGVTRSDQGLYTCAASSGLMTKKNSTFVRVHEKESKYGPPCPPCPPCGGGGGGGGGGEVQLVESGGGLVQPGGSLRLSCAASGSSFSPYAMGWYRQAPGKQRELVSATSEGGFTLYADSVKGRFTISRDNSKNTVYLQMNSLRAEDTAVYYCYMHWRGSDPENYWGQGTQVTVSS
notes: No Fc; also called anti-VEGFA/VEGFC/Ang2 multi-specific fusion protein
B2: IAR044-032 (other)
chain: EVQLLESGGGLVQPGGSLRLSCAASGFALDYYAIGWFRQAPGKGLEGVSCISSGEGSTYYADSVKGRFTISRDNSKNTVYLQMNSLRAEDTAVYYCATDSRGDDVACEGLRRNEYDYWGQGTLVTVSSGGGGGGGGGGSDTGRPFVEMYSEIPEIIHMTEGRELVIPCRVTSPNITVTLKKFPLDTLIPDGKRIIWDSRKGFIISNATYKEIGLLTCEATVNGHLYKTNYLTHRQTNTIIDVVLSPSHGIELSVGEKLVLNCTARTELNVGIDFNWEYPSSKHQHKKLVNRDLKTQSGSEMKKFLSTLTIDGVTRSDQGLYTCAASSGLMTKKNSTFVRVHEKEKTHTCPPCPPCGGGGGGGGGGEVQLVESGGGLVQPGGSLRLSCAASGSSFSPYAMGWYRQAPGKQRELVSATSEGGFTLYADSVKGRFTISRDNSKNTVYLQMNSLRAEDTAVYYCYMHWRGSDPENYWGQGTQVTVSS
notes: as for B1
B3: IAR044-039 (other)
chain: SDTGRPFVEMYSEIPEIIHMTEGRELVIPCRVTSPNITVTLKKFPLDTLIPDGKRIIWDSRKGFIISNATYKEIGLLTCEATVNGHLYKTNYLTHRQTNTIIDVVLSPSHGIELSVGEKLVLNCTARTELNVGIDFNWEYPSSKHQHKKLVNRDLKTQSGSEMKKFLSTLTIDGVTRSDQGLYTCAASSGLMTKKNSTFVRVHEKESKYGPPCPPCPPCGGGGGGGGGGEVQLLESGGGLVQPGGSLRLSCAASGFALDYYAIGWFRQAPGKGLEGVSCISSGEGSTYYADSVKGRFTISRDNSKNTVYLQMNSLRAEDTAVYYCATDSRGDDVACEGLRRNEYDYWGQGTLVTVSSGGGGGGGGGGEVQLVESGGGLVQPGGSLRLSCAASGSSFSPYAMGWYRQAPGKQRELVSATSEGGFTLYADSVKGRFTISRDNSKNTVYLQMNSLRAEDTAVYYCYMHWRGSDPENYWGQGTQVTVSS
notes: Trispecific fusion protein: VEGFA mini-Trap, hinge linker, anti-Ang2 VHH, linker, anti-VEGFC VHH
B4: IAR044-040 (other)
chain: SDTGRPFVEMYSEIPEIIHMTEGRELVIPCRVTSPNITVTLKKFPLDTLIPDGKRIIWDSRKGFIISNATYKEIGLLTCEATVNGHLYKTNYLTHRQTNTIIDVVLSPSHGIELSVGEKLVLNCTARTELNVGIDFNWEYPSSKHQHKKLVNRDLKTQSGSEMKKFLSTLTIDGVTRSDQGLYTCAASSGLMTKKNSTFVRVHEKEKTHTCPPCPPCGGGGGGGGGGEVQLLESGGGLVQPGGSLRLSCAASGFALDYYAIGWFRQAPGKGLEGVSCISSGEGSTYYADSVKGRFTISRDNSKNTVYLQMNSLRAEDTAVYYCATDSRGDDVACEGLRRNEYDYWGQGTLVTVSSGGGGGGGGGGEVQLVESGGGLVQPGGSLRLSCAASGSSFSPYAMGWYRQAPGKQRELVSATSEGGFTLYADSVKGRFTISRDNSKNTVYLQMNSLRAEDTAVYYCYMHWRGSDPENYWGQGTQVTVSS
notes: as for B3
B5: IAR044-038 (other)
chain: SDTGRPFVEMYSEIPEIIHMTEGRELVIPCRVTSPNITVTLKKFPLDTLIPDGKRIIWDSRKGFIISNATYKEIGLLTCEATVNGHLYKTNYLTHRQTNTIIDVVLSPSHGIELSVGEKLVLNCTARTELNVGIDFNWEYPSSKHQHKKLVNRDLKTQSGSEMKKFLSTLTIDGVTRSDQGLYTCAASSGLMTKKNSTFVRVHEKEPKSSPPCPPCPAPCGGGGGGGGGGEVQLLESGGGLVQPGGSLRLSCAASGFALDYYAIGWFRQAPGKGLEGVSCISSGEGSTYYADSVKGRFTISRDNSKNTVYLQMNSLRAEDTAVYYCATDSRGDDVACEGLRRNEYDYWGQGTLVTVSSGGGGGGGGGGEVQLVESGGGLVQPGGSLRLSCAASGSSFSPYAMGWYRQAPGKQRELVSATSEGGFTLYADSVKGRFTISRDNSKNTVYLQMNSLRAEDTAVYYCYMHWRGSDPENYWGQGTQVTVSS
notes: as for B3

The binders below were run against T3, human VEGF165 (R&D) (human, UniProt P15692-4 27-191) (assay: SPR (Biacore T200), CM5 chip, 1:1 binding model).
T3 construct: also called VEGFA; human VEGFA
T3 sequence (P15692 other isoform, or with tags, fused parts or gaps limits assumed): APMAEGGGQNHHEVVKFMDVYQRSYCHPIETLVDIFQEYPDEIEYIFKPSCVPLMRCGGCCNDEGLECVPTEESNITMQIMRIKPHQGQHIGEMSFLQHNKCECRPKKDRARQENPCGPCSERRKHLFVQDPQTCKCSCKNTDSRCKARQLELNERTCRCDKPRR

Row | Kd [nM] | koff [s⁻¹] | kon [M⁻¹ s⁻¹] | Binder
1 | 0.151 | 6.01e-05 | 399000 | B1
2 | 0.203 | 7.75e-05 | 382000 | B2

Each binder was assayed against T1, human Ang2 (Beijing Sino Biological) (assay: SPR (Biacore T200), CM5 chip, bivalent binding, 1:1 binding model).

Row | Kd [nM] | koff [s⁻¹] | kon [M⁻¹ s⁻¹] | Binder
3 | 0.00932 | 1.76e-05 | 1.89e+06 | B1
4 | 0.012 | 1.92e-05 | 1.63e+06 | B2

The binders below were run against T3, human VEGF165 (R&D) (assay: BLI (ForteBio), bivalent binding, 30 C; * beyond the limit of detection).

Row | koff [s⁻¹] | Binder
5 | ≤ 0.0002 | B1
6 | ≤ 0.0002 | B2

The binders below were run against T1, human Ang2 (Beijing Sino Biological) in the same assay as above.

Row | koff [s⁻¹] | Binder
7 | ≤ 0.0002 | B1
8 | ≤ 0.0002 | B2

The binders below were run against T2, human VEGFC (R&D) (assay: SPR (Biacore T200), CM5 chip, bivalent binding, 1:1 binding model).

Row | Kd [nM] | koff [s⁻¹] | kon [M⁻¹ s⁻¹] | Binder
9 | < 0.234 | < 1e-05 | 42800 | B1
10 | < 0.276 | < 1e-05 | 36200 | B2

The binders below were run against T2, human VEGFC (R&D) (assay: BLI (ForteBio), bivalent binding, 30 C).

Row | Kd [nM] | koff [s⁻¹] | kon [M⁻¹ s⁻¹] | Binder
11 | 1.01 | 0.000227 | 225000 | B3
12 | 0.885 | 0.000209 | 236000 | B4
13 | ≤ 0.92 | – | 217000 | B5
14 | ≤ 1.04 | – | 193000 | B1
15 | ≤ 1.01 | – | 197000 | B2

The binders below were run against T1, human Ang2 (Beijing Sino Biological) (assay: BLI (ForteBio), bivalent binding, 30 C).

Row | Kd [nM] | koff [s⁻¹] | kon [M⁻¹ s⁻¹] | Binder
16 | 0.705 | 0.000427 | 606000 | B3
17 | 0.783 | 0.00051 | 652000 | B4
18 | 0.475 | 0.000283 | 597000 | B5
19 | ≤ 0.206 | – | 973000 | B1
20 | ≤ 0.22 | – | 908000 | B2

What follows are binders tested against T3, human VEGF165 (R&D) (assay: BLI (ForteBio), bivalent binding, 30 C).

Row | Kd [nM] | koff [s⁻¹] | kon [M⁻¹ s⁻¹] | Binder
21 | 0.582 | 0.000272 | 468000 | B3
22 | 0.609 | 0.000293 | 481000 | B4
23 | 0.668 | 0.0003 | 450000 | B5
24 | ≤ 0.515 | – | 389000 | B1
25 | ≤ 0.517 | – | 387000 | B2

The binders below were run against T2, human VEGFC (R&D) (assay: BLI (ForteBio), bivalent binding, 30 C; * beyond the limit of detection).

Row | koff [s⁻¹] | Binder
26 | ≤ 0.0002 | B5
27 | ≤ 0.0002 | B1
28 | ≤ 0.0002 | B2
